Reference: paper PMC4560160

Key:
[1] = target: CCR5 endogenously expressed on human blood-derived monocytes, monocyte-derived macrophages (MDMs) and T cell blasts (human (endogenous in blood monocytes, MDMs and T cell blasts)) (UniProt P51681)
[2] = target: CCR5 endogenously expressed on human blood-derived monocytes, monocyte-derived macrophages (MDMs) and T cell blasts (human (endogenous in blood monocytes, MDMs and T cell blasts)) (UniProt P51681); remark: listed apart in the source
[3] = target: human CCR5 expressed on DHFR-deficient CHO cells (CHO-CCR5) (human) (UniProt P51681)

Sequence of CCL5 (P13501 24-91): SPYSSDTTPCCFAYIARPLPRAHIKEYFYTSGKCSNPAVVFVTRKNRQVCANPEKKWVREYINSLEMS

Substance | CCR5 down-modulation on monocytes after overnight culture with 100 nM analog: reduction of the surface binding signal of MC5, 2D7 and CTC5, flow cytometry [1] | CCR5 down-modulation on MDMs after overnight exposure to 100 nM ligand, detected with CTC5, flow cytometry [2] | CCR5 down-modulation: reduction of the specific binding of each anti-CCR5 mAb to the surface of CHO-CCR5 cells after 1 h at 37°C with 100 nM CCL5, flow cytometry [3]
amino-oxypentane (AOP)-RANTES (from UniProt P13501 24-91) (ligand) | 50% | > 50% | –
PSC-RANTES: Nα(n-nonanoyl)-des-Ser(1)-[L-thioprolyl(2), L-cyclohexylglycyl(3)]-RANTES(4-68) (from UniProt P13501 27-91) (ligand) | 50% | > 50% | –
CCL5 (from UniProt P13501 24-91) (ligand) | – | – | 50%
